Experiment [1] deals with FMNL2N(S171DD) (residues 1–379) (human) (UniProt Q96PY5). Briefly: ITC; GppNHp-loaded GTPase at 500 μM injected from the syringe into 50 μM FMNL in the cell; 20 mM Tris/HCl pH 8, 150 mM NaCl, 5 mM MgCl2, 1 mM DTE, 298 K; MicroCal iTC200.
In experiment [2] the target is FMNL1N (FMNL1 2–385, GBD–FH3) (human) (UniProt O95466). The description is as above.
Experiment [3] has as its target FMNL1NCC (FMNL1 1–458, GBD-FH3-CC) (human) (UniProt O95466). The description is as above.
Target sequence in this assay (O95466 1-458): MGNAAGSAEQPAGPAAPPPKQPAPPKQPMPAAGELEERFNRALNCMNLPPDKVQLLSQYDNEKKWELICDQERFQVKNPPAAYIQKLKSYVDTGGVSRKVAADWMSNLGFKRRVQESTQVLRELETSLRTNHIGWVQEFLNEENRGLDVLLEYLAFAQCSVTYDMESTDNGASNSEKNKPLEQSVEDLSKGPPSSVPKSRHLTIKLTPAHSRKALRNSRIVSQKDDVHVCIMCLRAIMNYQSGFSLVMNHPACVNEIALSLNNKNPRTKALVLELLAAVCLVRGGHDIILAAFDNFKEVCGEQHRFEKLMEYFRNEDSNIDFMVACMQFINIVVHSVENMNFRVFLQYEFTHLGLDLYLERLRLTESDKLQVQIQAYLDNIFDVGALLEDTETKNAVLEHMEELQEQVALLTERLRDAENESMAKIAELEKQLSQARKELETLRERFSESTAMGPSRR
The target is the same in experiment [4]. Briefly: SEC; analytical gel filtration, Superdex S200 (10/300 GL), typically 100 μg of each protein, 20 mM Tris/HCl pH 8.0, 150 mM NaCl, 1 mM DTE (2.5 mM MgCl2 with Rho GTPases), 0.5 ml/min, 293 K.
Experiment [5] has as its target FMNL2 1–489 (N-terminal FMNL2 construct including the coiled coil domain) (human) (UniProt Q96PY5). The description is as above.

Cdc42 (1–179), sequence (P60953 1-179): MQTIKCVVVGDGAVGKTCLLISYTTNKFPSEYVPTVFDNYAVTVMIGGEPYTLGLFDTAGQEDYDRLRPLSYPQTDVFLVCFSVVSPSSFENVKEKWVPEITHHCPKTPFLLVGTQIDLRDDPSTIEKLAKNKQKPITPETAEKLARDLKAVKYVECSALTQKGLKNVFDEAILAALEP
FMNL1N (FMNL1 2–385, GBD–FH3) (human), sequence (O95466 2-385): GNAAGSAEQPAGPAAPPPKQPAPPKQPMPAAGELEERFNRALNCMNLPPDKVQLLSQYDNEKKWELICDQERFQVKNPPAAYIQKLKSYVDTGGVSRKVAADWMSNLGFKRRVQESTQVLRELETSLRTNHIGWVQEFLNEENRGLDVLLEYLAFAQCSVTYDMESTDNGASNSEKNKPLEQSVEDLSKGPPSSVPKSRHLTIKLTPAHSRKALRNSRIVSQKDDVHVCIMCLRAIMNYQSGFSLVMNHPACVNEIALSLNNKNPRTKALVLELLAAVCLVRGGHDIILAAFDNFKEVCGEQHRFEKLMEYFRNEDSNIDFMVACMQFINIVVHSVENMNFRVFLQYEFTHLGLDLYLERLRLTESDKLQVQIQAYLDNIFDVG
FMNL1NCC (FMNL1 1–458, GBD-FH3-CC), sequence (O95466 1-458): as the sequence (O95466 1-458) above

Regarding “Cdc42 (1–179) (from UniProt P60953 1-179) (domain or fragment)”, in experiment [1], the Kd turned out to be 0.79 µM, the dH is -4.06 kcal/mol and the stoichiometry N worked out at 1.05. Also, in experiment [2], the Kd was 6.13 µM, the dH was -5.08 kcal/mol and the stoichiometry N turned out to be 0.28. In addition, in experiment [3], the Kd was 2.55 µM, the dH is -5.48 kcal/mol and the stoichiometry N turned out to be 0.37.
“FMNL1NCC (FMNL1 1–458, GBD-FH3-CC) (from UniProt O95466 1-458) (domain or fragment)” returned a stoichiometry N in experiment [4] of 2.
Regarding “FMNL2 1–489 (N-terminal FMNL2 construct including the coiled coil domain) (from UniProt Q96PY5 1-489) (domain or fragment)”, the stoichiometry N in experiment [5] came out at 2.

Values taken from PMC4432619.
